Test results published in the FLAb antibody collection (doi:10.7554/elife.23156).

B1: scFv; the commonest letter at each place (parent)
chain 1: EVKLDETGGGLVQPGRPMKLSCVASGFTFSDYWMNWVRQSPEKGLEWVAQIRNKPYNYETYYSDSVKGRFTISRDDSKSSVYLQMNNLRVEDMGIYYCTGSYYGMDYWGQGTSVTVS
chain 2: DVVMTQTPLSLPVSLGDQASISCRSSQSLVHSNGNTYLRWYLQKPGQSPKVLIYKVSNRFSGVPDRFSGSGSGTDFTLKISRVEAEDLGVYFCSQSTHVPWTFGGGTKLEIK

Legend:
[1] = variants of: B1; experiment: Kd (Tite-Seq); conditions: with fluorescein; format: scFv 4-4-20, heavy + light
[2] = variants of: B1; experiment: yeast surface expression (ratio to wild type); higher = more expressed; conditions: format: scFv 4-4-20, heavy + light

| Variant | Kd [1] [nM] | yeast surface expression [2] |
| --- | --- | --- |
| chain 1 EVKLDETGGGLVQPGRPMKLSCVASGFTFSDYWMNMPRQSPEKGLEWVAQIRNKPYNYETYYSDSVKGRFTISRDDSKSSVYLQMNNLRVEDMGIYYCTGSYYGMDYWGQGTSVTVS chain 2 DVVMTQTPLSLPVSLGDQASISCRSSQSLVHSNGNTYLRWYLQKPGQSPKVLIYKVSNRFSGVPDRFSGSGSGTDFTLKISRVEAEDLGVYFCSQSTHVPWTFGGGTKLEIK [chain 1 W36M V37P] | ≥ 10000 | 0.36 |
| chain 1 EVKLDETGGGLVQPGRPMKLSCVASGFTFSDYWPLWVRQSPEKGLEWVAQIRNKPYNYETYYSDSVKGRFTISRDDSKSSVYLQMNNLRVEDMGIYYCTGSYYGMDYWGQGTSVTVS chain 2 DVVMTQTPLSLPVSLGDQASISCRSSQSLVHSNGNTYLRWYLQKPGQSPKVLIYKVSNRFSGVPDRFSGSGSGTDFTLKISRVEAEDLGVYFCSQSTHVPWTFGGGTKLEIK [chain 1 M34P N35L] | ≥ 10000 | 0.779 |
| chain 1 EVKLDETGGGLVQPGRPMKLSCVASGFTFSDYWMNWRRQSPEKGLEWVAQIRNKPYNYETYYSDSVKGRFTISRDDSKSSVYLQMNNLRVEDMGIYYCTGSYYGMDYWGQGTSVTVS chain 2 DVVMTQTPLSLPVSLGDQASISCRSSQSLVHSNGNTYLRWYLQKPGQSPKVLIYKVSNRFSGVPDRFSGSGSGTDFTLKISRVEAEDLGVYFCSQSTHVPWTFGGGTKLEIK [chain 1 V37R] | 1080 | 0.716 |
| chain 1 EVKLDETGGGLVQPGRPMKLSCVASGFTFSDYWMNWVRQSPEKGLEWVAQIRNKPYNYETYYSDSVKGRFTISRDDSKSSVYLQMNNLRVEDMGIYYCTGSYYGMKYWLQGTSVTVS chain 2 DVVMTQTPLSLPVSLGDQASISCRSSQSLVHSNGNTYLRWYLQKPGQSPKVLIYKVSNRFSGVPDRFSGSGSGTDFTLKISRVEAEDLGVYFCSQSTHVPWTFGGGTKLEIK [chain 1 D106K G109L] | ≥ 10000 | 0.324 |
| chain 1 EVKLDETGGGLVQPGRPMKLSCVASGFTFSDYWMNWVRQSPEKGLEWVAQIRNKPYNYETYYSDSVKGRFTISRDDSKSSVYLQMNNLRVEDMGIYYCTGSYYGMGYEGQGTSVTVS chain 2 DVVMTQTPLSLPVSLGDQASISCRSSQSLVHSNGNTYLRWYLQKPGQSPKVLIYKVSNRFSGVPDRFSGSGSGTDFTLKISRVEAEDLGVYFCSQSTHVPWTFGGGTKLEIK [chain 1 D106G W108E] | ≥ 10000 | 0.575 |
| chain 1 EVKLDETGGGLVQPGRPMKLSCVASGFTFSDYWMNWVRQSPEKGLEWVAQIRNKPYNYETYYSDSVKGRFTISRDDSKSSVYLQMNNLRVEDMGIYYCTGSYKRMDYVGQGTSVTVS chain 2 DVVMTQTPLSLPVSLGDQASISCRSSQSLVHSNGNTYLRWYLQKPGQSPKVLIYKVSNRFSGVPDRFSGSGSGTDFTLKISRVEAEDLGVYFCSQSTHVPWTFGGGTKLEIK [chain 1 Y103K G104R W108V] | ≥ 10000 | 0.32 |
| chain 1 EVKLDETGGGLVQPGRPMKLSCVASGFTFSDYWMNWVRQSPEKGLEWVAQIRNKPYNYETYYSDSVKGRFTISRDDSKSSVYLQMNNLRVEDMGIYYCTGQDYGMDYIGQGTSVTVS chain 2 DVVMTQTPLSLPVSLGDQASISCRSSQSLVHSNGNTYLRWYLQKPGQSPKVLIYKVSNRFSGVPDRFSGSGSGTDFTLKISRVEAEDLGVYFCSQSTHVPWTFGGGTKLEIK [chain 1 S101Q Y102D W108I] | ≥ 10000 | 0.495 |

These reach a lower Kd [1]. Values come first.

| Kd [1] [nM] | Variant | yeast surface expression [2] |
| --- | --- | --- |
| 40.2 | chain 1 EVKLDETGGGLVQPGRPMKLSCVASGFTLSDYWMNWVRQSPEKGLEWVAQIRNKPYNYETYYSDSVKGRFTISRDDSKSSVYLQMNNLRVEDMGIYYCTGSYYGMDYWGQGTSVTVS chain 2 DVVMTQTPLSLPVSLGDQASISCRSSQSLVHSNGNTYLRWYLQKPGQSPKVLIYKVSNRFSGVPDRFSGSGSGTDFTLKISRVEAEDLGVYFCSQSTHVPWTFGGGTKLEIK [chain 1 F29L] | 0.984 |
| 0.939 | chain 1 EVKLDETGGGLVQPGRPMKLSCVASGFTFSDYWMNWVRQSPEKGLEWVAQIRNKPYNYETYYSDSVKGRFTISRDDSKSSVYLQMNNLRVEDMGIYYCTGSYYGMDLLGQGTSVTVS chain 2 DVVMTQTPLSLPVSLGDQASISCRSSQSLVHSNGNTYLRWYLQKPGQSPKVLIYKVSNRFSGVPDRFSGSGSGTDFTLKISRVEAEDLGVYFCSQSTHVPWTFGGGTKLEIK [chain 1 Y107L W108L] | 0.676 |
| 129 | chain 1 EVKLDETGGGLVQPGRPMKLSCVASGFTFSDYWMNWYRQSPEKGLEWVAQIRNKPYNYETYYSDSVKGRFTISRDDSKSSVYLQMNNLRVEDMGIYYCTGSYYGMDYWGQGTSVTVS chain 2 DVVMTQTPLSLPVSLGDQASISCRSSQSLVHSNGNTYLRWYLQKPGQSPKVLIYKVSNRFSGVPDRFSGSGSGTDFTLKISRVEAEDLGVYFCSQSTHVPWTFGGGTKLEIK [chain 1 V37Y] | 1.04 |
| 16.2 | chain 1 EVKLDETGGGLVQPGRPMKLSCVASGFTFSDYWMNWVRQSPEKGLEWVAQIRNKPYNYETYYSDSVKGRFTISRDDSKSSVYLQMNNLRVEDMGIYYCTGSYYGQDETGQGTSVTVS chain 2 DVVMTQTPLSLPVSLGDQASISCRSSQSLVHSNGNTYLRWYLQKPGQSPKVLIYKVSNRFSGVPDRFSGSGSGTDFTLKISRVEAEDLGVYFCSQSTHVPWTFGGGTKLEIK [chain 1 M105Q Y107E W108T] | 0.548 |
| 19.4 | chain 1 EVKLDETGGGLVQPGRPMKLSCVASGFTFSDYWMNWVRQSPEKGLEWVAQIRNKPYNYETYYSDSVKGRFTISRDDSKSSVYLQMNNLRVEDMGIYYCTGSYYGMDQWGQGTSVTVS chain 2 DVVMTQTPLSLPVSLGDQASISCRSSQSLVHSNGNTYLRWYLQKPGQSPKVLIYKVSNRFSGVPDRFSGSGSGTDFTLKISRVEAEDLGVYFCSQSTHVPWTFGGGTKLEIK [chain 1 Y107Q] | 0.757 |
